Laboratory results from patent publication US7127357.

What was measured:
[1] = biological target: PPApTPP (Myt1-T412), rhodamine-labeled (human); assay: fluorescence anisotropy, labeled peptide constant, protein varied
[2] = biological target: WFYpSPFLE (Pintide), rhodamine-labeled; assay: as above
[3] = biological target: GSSpSPV (Wee1-S123), rhodamine-labeled (human); assay: as above
[4] = biological target: VPRpTPV (Cdc25c-T48), rhodamine-labeled (human); assay: as above
[5] = biological target: PPGpSPP (Myt1-S416), rhodamine-labeled (human); assay: as above
[6] = biological target: LYRpSPS (Cdc25c-S214), rhodamine-labeled (human); assay: as above
[7] = biological target: YpSPTSPS (CTD-S2), rhodamine-labeled (human); assay: as above
[8] = biological target: YSPTpSPS (CTD-S5), rhodamine-labeled (human); assay: as above
[9] = biological target: STSpTPR (Myt1-T455), rhodamine-labeled (human); assay: as above
[10] = biological target: YpSPTpSPS (CTD-S2/S5), doubly phosphorylated CTD peptide (human); assay: as above
[11] = biological target: YLGpSPI (Cdc25c-S168), rhodamine-labeled (human); assay: as above
[12] = biological target: YpSPTpSPS (CTD-S2/S5), doubly phosphorylated CTD peptide (human); assay: fluorescence anisotropy

| Substance | Kd [1] | Kd [2] | Kd [3] | Kd [4] | Kd [5] | Kd [6] | Kd [7] | Kd [8] | Kd [9] | Kd [10] | Kd [11] | fold reduction in binding affinity (against wild type Pin1) [12] |
| --- | --- | --- | --- | --- | --- | --- | --- | --- | --- | --- | --- | --- |
| human Pin1 (full length, wild type) (from UniProt Q13526 1-163) (enzyme) | 12 µM | 17 µM | 73 µM | 4.9 µM | 80 µM | 47 µM | 61 µM | 30 µM | 46 µM | 10 µM | 69 µM | – |
| isolated WW domain of human Pin1 (from UniProt Q13526 1-39) | 15 µM | 44 µM | – | 7.7 µM | 126 µM | 72 µM | 110 µM | 34 µM | 39 µM | 34 µM | 91 µM | – |
| isolated PPIase domain of human Pin1 (from UniProt Q13526 50-163) (enzyme) | – | 86 µM | – | – | – | – | – | – | – | 390 µM | – | – |
| Pin1 Trp-34 to Phe mutant (from UniProt Q13526 1-163) (enzyme) | – | – | – | – | – | – | – | – | – | – | – | 6 fold |
